Test results: US20050260153, “Facilitation of iontophoresis using charged moieties” (published 2005)

Assays:
Conditions in all cases: tags: 125I-labelled; chain copies: 2
[1] = molecular target: T1, VEGF165 (UniProt P15692-4 P15692-4:27-191); experiment: competition; inhibits 125I-VEGF165 binding to Flt-1/Fc; much more effective than EYE002; PBS, 1 mM CaCl2, 1 mM MgCl2, 0.01% HSA, pH 7.4, 37 C; IC50 only in figure
Procedure: Each well is then washed with 300 μL of binding buffer (PBS with 1 mM calcium chloride, 1 mM magnesium chloride, 0.01% HSA, PH 7.4) at room temperature twice. For KDR/Fc, 0.25 picomole (85 ng) of the chimeric receptor in 100 μL of binding buffer is added into the first 11 wells, whereas the twelfth well receive 0.5 picomole (118 ng) of human ICAM-1/Fc chimera protein as the background control well. For Flt-1/Fc, 0.125 picomole (30.8 ng) of the chimeric receptor in 100 μL of binding buffer each is added into the first 11 wells, whereas the background control well (#12) receive 0.5 picomole (118 ng) of human ICAM-1/Fc chimera protein. For neuropilin-1/Fc, 0.2 picomole (48 ng) of the chimeric receptor in 100 μl of binding buffer is added to all 12 wells. The chimeric receptors and human ICAM-1/Fc protein are captured onto the well by binding to the immobilized anti-human IgG₁ Fc fragment-specific antibody in each well at room temperature for 2 to 3 hour. […]
A set of 10 five-fold dilutions of the Pegaptanib (tube #1 to #10) ranging from 1 μM (or 2 μM) to 0.512 picomolar (pM) (or 1.024 pM) are each mixed with about 0.01 μCi of ¹²⁵I-VEGF₁₆₅ in binding buffer (PBS with 1 mM calcium chloride, 1 mM Magnesium Chloride, 0.01% HSA, pH 7.4) in non-stick 1.5 mL microfuge tubes, in a total 100 μL final volume each. […] The radioactivity of each well is determined by scintillation counting.

[2] = molecular target: T1, VEGF165; experiment: competition; dextran conjugates inhibit VEGF/Flt-1 binding better than non-enhanced aptamer; dextran alone no effect; values in figure
[3] = molecular target: T1, VEGF165; experiment: competition; CMC conjugates inhibit VEGF/Flt-1 binding better than non-enhanced aptamer; CMC alone no effect; values in figure
[4] = molecular target: T1, VEGF165; experiment: competition; 3'-PEG more effective than non-enhanced aptamer in inhibiting VEGF/Flt-1 binding; values in figure
[5] = molecular target: T1, VEGF165; experiment: competition; VEGF/Flt-1 inhibition less effective than 20K/20K branched; values in figure
[6] = molecular target: T1, VEGF165; experiment: competition; VEGF/Flt-1 inhibition more effective than 10K linear; values in figure
[7] = molecular target: T1, VEGF165; experiment: competition; VEGF/Flt-1 inhibition less effective than 30K linear; values in figure

T1 sequence (P15692 other isoform, or with tags, fused parts or gaps): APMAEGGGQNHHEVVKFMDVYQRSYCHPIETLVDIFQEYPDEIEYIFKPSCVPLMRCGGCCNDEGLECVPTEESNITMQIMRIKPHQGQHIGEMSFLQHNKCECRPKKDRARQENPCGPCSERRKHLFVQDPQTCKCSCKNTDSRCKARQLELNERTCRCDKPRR

B1: Pegaptanib (EYE001, Macugen, MacI; 20K/20K branched 5'-PEG VEGF aptamer) (ssRNA)
RNA: CGGAAUCAGUGAAUGCUUAUACAUCCG
modifications: 2'-F on C and U, 2'-OMe on G and A except unmodified ribo A at positions 4 and 5; 5'-PEG 40 kDa branched via amino linker; 3'-3' dT cap
binding result [1]: binds

B2: 5'-dextran VEGF aptamer conjugate (ssRNA)
RNA: CGGAAUCAGUGAAUGCUUAUACAUCCG
modifications: 2'-F on C and U, 2'-OMe on G and A except unmodified ribo A at positions 4 and 5; 5'-dextran (e.g. 40 kDa)
binding result [2]: binds

B3: 5'-CMC VEGF aptamer conjugate (ssRNA)
RNA: CGGAAUCAGUGAAUGCUUAUACAUCCG
modifications: 2'-F on C and U, 2'-OMe on G and A except unmodified ribo A at positions 4 and 5; 5'-carboxymethyl cellulose (about 50 kDa)
binding result [3]: binds

B4: 3'-PEG VEGF aptamer conjugate (ssRNA)
RNA: CGGAAUCAGUGAAUGCUUAUACAUCCG
modifications: 2'-F on C and U, 2'-OMe on G and A except unmodified ribo A at positions 4 and 5; 3'-PEG
binding result [4]: binds

B5: 5K/5K branched PEG VEGF aptamer conjugate (ssRNA)
RNA: CGGAAUCAGUGAAUGCUUAUACAUCCG
modifications: 2'-F on C and U, 2'-OMe on G and A except unmodified ribo A at positions 4 and 5; PEG 5K/5K branched
binding result [5]: binds

B6: 30K linear PEG VEGF aptamer conjugate (ssRNA)
RNA: CGGAAUCAGUGAAUGCUUAUACAUCCG
modifications: 2'-F on C and U, 2'-OMe on G and A except unmodified ribo A at positions 4 and 5; PEG 30K linear
binding result [6]: binds

B7: 10K linear PEG VEGF aptamer conjugate (ssRNA)
RNA: CGGAAUCAGUGAAUGCUUAUACAUCCG
modifications: 2'-F on C and U, 2'-OMe on G and A except unmodified ribo A at positions 4 and 5; PEG 10K linear
binding result [7]: binds
